Consider five molecules from patent US20050112168A1 (UNIVERSITY OF ROCHESTER, published 2005).

For orientation: Kd means a measure of binding affinity in units of concentration. Low readings indicate a tighter complex, high ones a looser complex.

Ends that are not written are not given here.

Experiment [1] has as its target T1, purified type V tartrate resistant acid phosphatase (TRAP), also known as uteroferrin (UniProt P09889 22-340, limits assumed).
T1 construct: Purified protein used as immobilised bait, in ELISA, Scatchard, Far-Western and GST pull-down; also called type V TRAP; purified TRAP
T1 sequence (looked up): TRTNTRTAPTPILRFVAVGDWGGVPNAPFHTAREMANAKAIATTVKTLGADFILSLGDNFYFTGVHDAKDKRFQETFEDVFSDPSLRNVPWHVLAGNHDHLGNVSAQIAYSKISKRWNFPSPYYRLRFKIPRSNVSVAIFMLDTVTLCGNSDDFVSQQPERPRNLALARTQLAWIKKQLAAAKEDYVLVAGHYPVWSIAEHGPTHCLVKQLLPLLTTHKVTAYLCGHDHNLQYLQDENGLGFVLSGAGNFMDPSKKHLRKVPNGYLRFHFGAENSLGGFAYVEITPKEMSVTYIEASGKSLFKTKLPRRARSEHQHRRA
In words: modified phage ELISA on immobilised TRAP, antibody to the phage coat. For orientation: In an ELISA, binding on a coated surface is turned into a signal by an enzyme label.
From the text: The binding was compared to wild type phage containing no expressed oligopeptides.

For experiment [2], the target named is T1, purified type V tartrate resistant acid …. In words: M13 random 12-mer phage display, three rounds of bio-panning on immobilised TRAP.
From the text: After three rounds of bio-panning, elution and amplification 44 phage clones were selected at random and sequenced.
Experiment [3] addresses T2, VP-16-AD-GPC412 (VP-16-AD fused to GPC4 deficient in the 12 amino acids of Clone 5) (human, UniProt O75487 19-556).
T2 construct: also called 12 amino acid deficient version of GPC4
T2 sequence: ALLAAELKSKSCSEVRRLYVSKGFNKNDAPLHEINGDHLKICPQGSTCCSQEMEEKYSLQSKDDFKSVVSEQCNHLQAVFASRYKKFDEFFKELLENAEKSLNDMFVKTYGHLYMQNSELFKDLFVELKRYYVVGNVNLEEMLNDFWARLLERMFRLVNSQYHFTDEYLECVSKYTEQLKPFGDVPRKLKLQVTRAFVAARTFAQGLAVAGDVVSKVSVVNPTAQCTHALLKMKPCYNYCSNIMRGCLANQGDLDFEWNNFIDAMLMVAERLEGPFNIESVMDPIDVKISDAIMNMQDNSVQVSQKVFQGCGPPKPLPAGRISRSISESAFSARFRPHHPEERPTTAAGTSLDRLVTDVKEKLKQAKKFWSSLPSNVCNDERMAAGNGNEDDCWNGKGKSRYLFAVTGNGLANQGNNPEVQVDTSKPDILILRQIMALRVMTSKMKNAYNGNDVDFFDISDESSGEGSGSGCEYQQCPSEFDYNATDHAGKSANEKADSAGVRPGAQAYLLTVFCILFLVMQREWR
In words: mammalian two-hybrid luciferase assay.

The target of experiment [4] is T3, type II TGFβ receptor (UniProt P37173 23-567, limits assumed).
T3 construct: From lysate of transfected cells; also called TGFβRII; TGFβ type II receptor
In words: GST-TRAP pull-down from lysate of cells without HIS-TRIP, Western.
Method: (§1) The GST fusion proteins were pulled down by glutathione coated beads (Amersham) in 4° C. for 1 h then washed three times with NETN buffer (20 mM Tris/pH 8.0, 100 mM NaCl, 6 mM MgCl₂, 1 mM EDTA, 0.5% NP-40, 1 mM DTT, 8% glycerol, and 1 mM PMSF). The purified GST fusion proteins and beads were suspended in 100 μl NETN buffer. […] After incubating for 1 h at 4° C. with agitation, the glutathione-coated beads were washed with NETN buffer four times then the protein complexes were loaded in SDS-PAGE and visualized by using the ECL-plus method.
(§2) Detection of HIS-TRIP was performed with anti-HIS antibodies and detection of the TGFβRII and Smad 2 were performed with a commercially available antibodies. For these studies, all cells were transfected with the TGFβRII. […] The cells were lysed and the lysate incubated with glutathione beads. The beads were extensively washed and the proteins interacting with the beads were analyzed with Western analysis.

Experiment [5] addresses T4, Smad 2 (UniProt Q15796 2-467, limits assumed).
T4 construct: Detected by a bought antibody in the pull-down
The description is as above.
Method: as §1, §2

Experiment [6] concerns the target T5, bovine serum albumin (bovine, UniProt P02769 25-607).
T5 construct: Control; also called BSA
In words: Far-Western, proteins on membrane probed with Clone 5 phage.
Method: (§3) They were then transferred to PVDF membranes (NEN) and incubated with 10¹⁰ phage particles from selected clones at 4° C. for overnight. The membrane was washed in PBS with 0.5% [v/v] […] An anti-M13 phage peroxidase-conjugated antibody at a dilution of 1:15000 was added and gently swirled at room temperature for an hour. […] Detection of the phage/antibody complex was accomplished using ECL-plus (Amersham) with the membrane being exposed to Kodak Biomax MR film for 30 seconds.

In experiment [7] the target is T6, RNase A (UniProt P61823 27-150).
T6 construct: Control
T6 sequence (looked up): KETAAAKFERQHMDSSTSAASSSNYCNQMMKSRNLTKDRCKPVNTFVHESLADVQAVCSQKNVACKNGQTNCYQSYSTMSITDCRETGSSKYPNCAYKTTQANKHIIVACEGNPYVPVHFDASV
The experiment is described as above.
Method: as §3

Experiment [8] deals with T1, purified type V tartrate resistant acid …. In words: Scatchard-type analysis, immobilised TRAP and increasing phage titer, bound phage counted by plaque assay.
Method: After a one hour room temperature incubation, each well was washed with PBS with 0.5% [v/v] Tween 20 four times. The bound phage where then amplified directly in the wells by the addition of 100 ul of log-phase ER2537 (M13 bacteria host). The number of phage in each well was then determined with a standard plaque assay. […] The bound and free fraction of phage were then determined.

T3 sequence (P37173 23-567 limits assumed): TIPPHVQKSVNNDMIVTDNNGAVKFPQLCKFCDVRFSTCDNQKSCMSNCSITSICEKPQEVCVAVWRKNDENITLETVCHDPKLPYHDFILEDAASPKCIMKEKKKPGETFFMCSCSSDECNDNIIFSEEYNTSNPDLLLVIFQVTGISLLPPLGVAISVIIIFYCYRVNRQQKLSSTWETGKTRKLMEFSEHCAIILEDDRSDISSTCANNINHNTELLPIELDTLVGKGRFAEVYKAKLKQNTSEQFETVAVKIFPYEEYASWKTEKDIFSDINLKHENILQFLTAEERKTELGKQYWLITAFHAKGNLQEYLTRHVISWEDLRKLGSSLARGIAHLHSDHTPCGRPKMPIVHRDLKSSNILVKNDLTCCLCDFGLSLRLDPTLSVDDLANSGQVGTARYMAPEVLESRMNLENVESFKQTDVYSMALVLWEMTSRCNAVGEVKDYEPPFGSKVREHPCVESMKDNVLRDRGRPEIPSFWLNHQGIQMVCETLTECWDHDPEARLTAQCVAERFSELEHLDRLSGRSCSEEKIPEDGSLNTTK
T5 sequence (P02769 25-607 limits assumed): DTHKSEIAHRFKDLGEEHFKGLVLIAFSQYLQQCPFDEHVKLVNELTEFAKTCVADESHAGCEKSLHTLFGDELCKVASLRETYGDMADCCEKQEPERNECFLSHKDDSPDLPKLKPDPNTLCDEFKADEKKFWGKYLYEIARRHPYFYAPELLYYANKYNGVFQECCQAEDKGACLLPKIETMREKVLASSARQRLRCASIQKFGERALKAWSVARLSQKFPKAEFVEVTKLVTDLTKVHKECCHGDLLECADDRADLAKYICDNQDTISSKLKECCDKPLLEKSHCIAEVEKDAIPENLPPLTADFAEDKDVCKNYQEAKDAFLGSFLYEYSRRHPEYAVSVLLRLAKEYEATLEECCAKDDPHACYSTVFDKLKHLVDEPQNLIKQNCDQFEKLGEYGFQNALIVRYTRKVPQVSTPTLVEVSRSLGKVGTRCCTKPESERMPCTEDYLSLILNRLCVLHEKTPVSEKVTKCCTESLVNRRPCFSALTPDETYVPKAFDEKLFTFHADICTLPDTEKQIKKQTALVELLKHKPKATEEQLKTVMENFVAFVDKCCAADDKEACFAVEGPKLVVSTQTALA
T4 sequence (Q15796 2-467 limits assumed): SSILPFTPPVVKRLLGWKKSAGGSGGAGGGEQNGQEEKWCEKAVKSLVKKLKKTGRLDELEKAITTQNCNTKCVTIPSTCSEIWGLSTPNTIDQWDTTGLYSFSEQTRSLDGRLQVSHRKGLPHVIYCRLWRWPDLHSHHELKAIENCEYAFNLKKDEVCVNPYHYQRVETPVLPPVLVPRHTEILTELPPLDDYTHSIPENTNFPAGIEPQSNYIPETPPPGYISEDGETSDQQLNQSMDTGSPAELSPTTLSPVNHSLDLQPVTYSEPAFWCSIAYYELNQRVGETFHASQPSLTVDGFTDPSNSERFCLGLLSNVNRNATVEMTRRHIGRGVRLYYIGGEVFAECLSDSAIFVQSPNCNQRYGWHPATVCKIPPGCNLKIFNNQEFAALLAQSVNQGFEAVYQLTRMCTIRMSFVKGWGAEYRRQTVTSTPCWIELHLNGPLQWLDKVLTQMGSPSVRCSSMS

B1: M13 phage clone displaying SEQ ID NO:21 (peptide)
peptide: SQWHPRSASYPM
notes: also called ID No. 21; not shown: M13 phage coat protein carrying the random 12-mer; not specified
With B1, the “fold increase in affinity for TRAP over wild type phage” value in experiment [1] is 40 fold. Also, in experiment [2], the “Fre (frequency among 44 sequenced clones after bio-panning with TRAP)” value (“Fre” below) is 4 of 44 clones.

B2: GAL-4-BD-TRAP fusion protein (other)
chain: MKLLSSIEQACDICRLKKLKCSKEKPKCAKCLKNNWECRYSPKTKRSPLTRAHLTEVESRLERLEQLFLLIFPREDLDMILKMDSLQDIKALLTGLFVQDNVNKDAVTDRLASVETDMPLTLRQHRISATSSSEESSNKGQRQLTVSATPALRFVAVGDWGGVPNAPFHTAREMANAKEIARTVQILGADFILSLGDNFYFTGVQDINDKRFQETFEDVFSDRSLRKVPWYVLAGNHDHLGNVSAQIAYSKISKRWNFPSPFYRLHFKIPQTNVSVAIFMLDTVTLCGNSDDFLSQQPERPRDVKLARTQLSWLKKQLAAAREDYVLVAGHYPVWSIAEHGPTHCLVKQLRPLLATYGVTAYLCGHDHNLQYLQDENGVGYVLSGAGNFMDPSKRHQRKVPNGYLRFHYGTEDSLGGFAYVEISSKEMTVTYIEASGKSLFKTRLPRRARP
notes: Expressed inside transfected cells
Take B2: the binding result in experiment [3] is “no binding”.

B3: GST-TRAP fusion protein (other)
chain: ATPALRFVAVGDWGGVPNAPFHTAREMANAKEIARTVQILGADFILSLGDNFYFTGVQDINDKRFQETFEDVFSDRSLRKVPWYVLAGNHDHLGNVSAQIAYSKISKRWNFPSPFYRLHFKIPQTNVSVAIFMLDTVTLCGNSDDFLSQQPERPRDVKLARTQLSWLKKQLAAAREDYVLVAGHYPVWSIAEHGPTHCLVKQLRPLLATYGVTAYLCGHDHNLQYLQDENGVGYVLSGAGNFMDPSKRHQRKVPNGYLRFHYGTEDSLGGFAYVEISSKEMTVTYIEASGKSLFKTRLPRRARP
notes: also called 'GST' tagged TRAP; recombinant GST-TRAP; not shown: glutathione S-transferase tag (Amersham Pharmacia GST system)
For B3, the binding result in experiment [4] and in experiment [5] was “no binding” in each case.

B4: Clone 5 phage (M13 phage displaying the 12-mer TPLSYLKGLVTV) (peptide)
peptide: TPLSYLKGLVTV
modifications: also: displayed on M13 phage coat protein (protein and linker not given here)
notes: also called GPC4 phage (Clone 5); ID No. 23; not shown: M13 phage coat protein carrying the random 12-mer
For the molecule B4, the binding result in experiment [6] and in experiment [7] was “no binding (tested: 5 ug loaded)” in each case. Also, in experiment [2], the “Fre” value was 15 of 44 clones. This molecule displayed a Kd in experiment [8] of 0.11 nM.

B5: M13 phage clone displaying SEQ ID NO:22 (peptide)
peptide: TPSLPPTMFRLT
notes: also called ID No. 22; not shown: M13 phage coat protein carrying the random 12-mer; not specified
For B5, the “fold increase in affinity for TRAP over wild type phage” value in experiment [1] was found to be 40 fold. Also, the “Fre” value in experiment [2] was 4 of 44 clones.
